Measured values reported in the RNAGym collection of RNA variant scans (doi:10.1073/pnas.2313332121).
Fewer inactive variants are shown than the library holds.

B1: TPR 5TU (parent)
chain: GGAUCUUCUCGAUCUAACAAAAAAGACAAAUCUGCCACAAAGCUUGAGAGCAUCUUCGGAUGCAGAGGCGGCAGCCUUCGGUGGCGCGAUAGCGCCAACGUUCUCAACUAUGACACGCAAAACGCGUGCUCCGUUGAAUGGAGUUUAUCAUG

Variants of: B1
Test: polymerase ribozyme fitness, log enrichment relative to wild type (log ratio); higher = more active; in vitro selection for triplet polymerase activity
In short: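 Libraries of mutants in each subunit of a heterodimeric triplet polymerase ribozyme were generated by PCR and transcribed. In triplicate, each went through one in vitro selection round: annealing with biotinylated primer, partner subunit and triplets; frozen incubation at −7 °C; gel excision of extended constructs; streptavidin-bead capture; RT-PCR. Fitness, taken from Illumina sequencing of input and output libraries, is the logarithm of a genotype's enrichment over wild-type enrichment, averaged across replicates with inverse-variance weights. The logarithm is base 2, and genotypes needed ≥10 input reads and ≥1 read per output to be kept.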

Variant	polymerase ribozyme fitness (log ratio)
A3U C36U	-2.21
U4A A29U C38U U44A U55A C57U C87G C95G	≤ -4.2
A3C C85U C95U C114U G133C	≤ -4.2
U4A C35G G46A C75G G94C C105G	≤ -4.2
U4A A29G U61A G94U G126U G133U U151G	≤ -4.2
A3C U4A	0.257
A3U C8U C14G A19C U33A A52C G70A C79G C87G G152U	≤ -4.2
A3G U13A U56A C96A A138G	≤ -4.2
A3C U9A A30U G48A U53A C54U G67U C93G G126A U135G	≤ -4.2
A3G A29G A39G G86U C99G	≤ -4.2
U4A A20G C35A U55G C72U C99U A120U U146A	≤ -4.2
A3U U145C	-0.205
U4A A26G A49C A107G	≤ -4.2
A3U A17C A89U C132U	-1.09
A3U U4G U55A A119C	-1.29
A3G U4A U53C G59U U61A G71C C85A	≤ -4.2
A3C C69A C87G U146C C149U U151G	≤ -4.2
A3G C85U	-1.05
A3G C85G	-3.16
A3U U15G C51A G84U U151G	≤ -4.2
A3C U56G C93U C114G U134A U148C	≤ -4.2
A3C C57U U82G G84A U90A C93G C149U	≤ -4.2
U4A C54U U56A C79G C85U C103G C116U G143C	≤ -4.2
A3U G80U	-0.722

Variant	polymerase ribozyme fitness (log ratio)
A3U A28C U55G U56G C63G G86C A91C	≤ -4.2
A3G C10A A12G G59U A66G C72G C85U	≤ -4.2
A3G U44G C57A G59U G68C C87G	≤ -4.2
A3U G62U G94A	-1.08
A3G A26U C72U	≤ -4.2
A3G A16U U53A C75U G92U	-3.54
A3G A147U	1.09
A3U G25U C27U C36A C87U C105G C118U G152C	≤ -4.2
A3C U44G U56A G84C	≤ -4.2
U4A C18U C79G A91U A142C U148C	≤ -4.2
A3C U90A	-4.17
A3G C43U A60C G84A U130A	≤ -4.2
A3U C85U C96U C108G G140C	≤ -4.2
A3C C93A A98U	-1.79
A3U U53A U82C C87G C96U C125G	≤ -4.2
A3U A29G A49C G92A G124U G140A	≤ -4.2
A3U U31G C36U C96A	-2.99
A3U C87G A113C	-4.19
U4A C96A A98C A115U A142U G152C	≤ -4.2
A3G A20U C27G G42A U56A U77G G86A G117U G133C	≤ -4.2
A3U C36A G42C C87A A89G G100C	≤ -4.2
A3U C8A C18U A47C A49U C93U U102G A107G G133U	≤ -4.2
A3U A37U C96U C118G	-3.38
A3G G50C A120G C129A	≤ -4.2

Variant	polymerase ribozyme fitness (log ratio)
A3C U13G A23U C87U A91U C96U	≤ -4.2
U4A C38U A40U G42U A73G U82C G94U A107G	≤ -4.2
A3C U7A G84U U144G	-2.38
U4A	-0.014
A3C U31G C51U A60C A122C G140A	≤ -4.2
A3U U4A C5U C14G A16U A30C G83U G100A	≤ -4.2
A3G A23C C75A G88A C99G C108U G143C	≤ -4.2
A3G A49C C51U G59C C95U C131G	≤ -4.2
A3U C8A A17G U56A G59A C85A A120G	≤ -4.2
A3U C18A A22U A37G C85U	-3.29
U4A A19C A41U U56C G124A G143A	-3.84
A3U A26G U61A G92A	≤ -4.2
A3C G58C C63U C95G	-1.68
A3U C35U C54A C85G	≤ -4.2
A3U C5G C18U U31A C76U G94U	-1.46
A3G A60C C93U U145G	-2.53
A3U G70A A89C U139C U144A	≤ -4.2
A3G C36G U77C	≤ -4.2
A3U A20C A26U C57G C108U	≤ -4.2
A3G A73U A121U	-0.51
A3G C93A C108U C125G A142G U145G U146A	≤ -4.2
A3G A29G U82A	≤ -4.2
U4A C43U G65U U77C U111G	≤ -4.2
A3U C35G C93U G100A C105G G133C	≤ -4.2

Variant	polymerase ribozyme fitness (log ratio)
U4A A17C G94A C149U	-1.61
U4A A22C U56A G124U U135C	-3.48
A3G U56C C87A G92C	-2.12
U4A C76A G86C A122C	-3.26
A3G G46C C54A U146C	-3.68
A3C U4A U56G C57U C132A	-4.08
A3C U7G C14U A52G	-3.28
A3U C5G U7C A30C C36U U55A A60G C75U C87G U101A A119C C123G G143U	≤ -4.2
A3U C14U A40U A52U G84A G112C	≤ -4.2
A3G G94U C103U U127C U134C G136A	-3.9
U4A A12C U55A G84U	-2.4
A3C U4A U6C U15C A17G C38U C54U C72U G86U U127G	≤ -4.2
A3G U82G C96U U148A	-4.17
A3G U6A A39U G84U U134A U144C A150U	≤ -4.2
A3U G84A G94A A98C G124A	-0.883
A3G C18A C93G C123U C131U	-1.32
A3G C14G U55A U56A C85U	-4.18
U4A C8U A24C C96U	≤ -4.2
A3C C85U	-1.46
A3G U4G C32U U56A G74A G81A A120G	-0.184
A3U A16U C54U U55A C85U A98C C99U C129G G152U	≤ -4.2
U4A A21C G80A	-0.338
A3G C27U G86A	-3.94
A3U A47C C57A	-0.307

Variant	polymerase ribozyme fitness (log ratio)
A3U C8U	-0.611
A3U C8G	≤ -4.2
U4A A28U C93U A97U C105G G126A G136U	≤ -4.2
A3G A30G C38A G83A U101G	≤ -4.2
A3C G86A C125U	-2.79
A3U A17C G94C	-0.825
A3U A47C C105U A120C G124A	-1.78
U4A A41C G126C	-1.9
A3G C5G U15C G84U C108U A121U	≤ -4.2
A3U C38A C85G C99U G124A	-3.77
A3G G83A G86U C118U	-3.29
A3C U6A C35A C95U U102C C103G G143U	≤ -4.2
A3U A20U A41G A49G A64U C108G	≤ -4.2
A3U A21C C69A C76A G86A A89G A122G	≤ -4.2
A3U C51U U56G G58C G59A A73G	-3.64
A3C U4A A121G G141A A142C	-4.03
A3G U13C A98U A107U	-4
A3U C85A	-1.48
A3U C87U	-0.956
A3U C87G	-3.94
A3U U7A A37U G67U A91C G143A	≤ -4.2
U4A C8A A20U A29C A40G G70C U101A A120U	≤ -4.2
A3U A12G C87G	-4.02
A3U C36U U56G A60C U61G C79U C93U C99U G112C U144A A150C	≤ -4.2

Variant	polymerase ribozyme fitness (log ratio)
A3G C116U G124A A142G	-2.6
A3U A21U G50U G58A U77A G100U A137G	≤ -4.2
U4A C38A U53G C85U G94C A107G A137C G140A	≤ -4.2
U4A A60U G86A A107G A122C	≤ -4.2
U4A C14G A40G	-3.69
A3U U31C C57U G86A	-1.99
A3U U6A A39G C96G G124U G141A	-3.93
A3G A17C G143C	-2.6
A3U A52G C96G C131U	-0.0465
U4A A21C	0.483
U4A A37U G94C A150G	-4.19
A3U G25C C38U C85A C116A C123U	-2.27
A3G C32G C35U A49C G50C C85A C103U C118G	≤ -4.2
A3U C18U A20C A30C A41C C69U G94A C103G	≤ -4.2
A3U C14G G50C C85U G88A	≤ -4.2
A3U A73G G86U C129A A137G	≤ -4.2
A3U G11A C14G U53C C76G G117U	≤ -4.2
A3G C8A U44A A47C U56A G84C C87G	≤ -4.2
A3G C18U C27G A28U U78A	≤ -4.2
A3C U56G C57G C116G	-2.89
U4A C132G U139G	-3.71
A3G C87U C132G	-4.07
A3U C8A U13G U90A C93A A107G G143C	≤ -4.2
U4A C38U C57A A66G C96G C105A C123G G124A C129G	≤ -4.2

Variant	polymerase ribozyme fitness (log ratio)
A3U A16C A60G C87A U102G C108G U127A U145G	≤ -4.2
A3U C35A C43A A52G G88A C108G	≤ -4.2
A3G A19U U55C G84A	-0.956
A3G C14U G42C G59A C96U A122U U146C	≤ -4.2
A3U G65A C85A	-3.12
A3U G83A	-1.47
A3U G83C	-0.632
A3G G71U C96A A107G C116U C125G	≤ -4.2
A3C C87G	-3.29
U4A C10U A17G A21C C43U G92A C105A G124C	≤ -4.2
A3U A16C A52U C57U C76U G86U	≤ -4.2
A3C G88C	-4.14
A3G C27U C51A G59A C85U G88A A115U G141A	≤ -4.2
A3G A39U G59C G83U	-3.56
A3C U45A G67U G71C G80C C95A C103A	≤ -4.2
U4A A17G C35A G59C U135A	≤ -4.2
A3C G48U C69U	-2.88
A3U C38A C87U C95U G128C	≤ -4.2
A3G A12G A29G C38U G42C G86U A138C	≤ -4.2
U4A C18U A64C G68A C79G	≤ -4.2
A3U A20C G58C A73U G81A A147C	≤ -4.2
A3U G46A G50U U56A G74A G84U U130A U144C C149U	≤ -4.2
A3U U31G A40U U53A C85U C95U	-3.06
